Conditions in all cases: tags: N-terminal His-tag (pET-15b, E. coli BL21(DE3))
In data set [1] the target is T1, SUSIBA2 (WRKY transcription factor; purified fraction with 70 and 68 kDa forms) (Hordeum vulgare, UniProt Q6VWJ6 Q6VWJ6:1-573). Put plainly: EMSA; binding negligible. An excerpt: (§1) The 822-bp long SphI/HaeII fragment, encompassing SP8a and flanking sequences, as well as the 437-bp long BspHI/HaeII fragment, containing SP8a and downstream flanking sequence, formed prominent DNA-protein complexes with the purified SUSIBA2 fraction. Much to our surprise, however, the 510-bp long SphI/BsaI fragment, containing SP8a and upstream flanking sequence, bound only very poorly to SUSIBA2. We concluded that, in fact, the target for SUSIBA2 in the iso1 promoter is not SP8a but one or more sites downstream of the SP8a element. […] To follow up on this observation, we carried out EMSAs with oligonucleotides consisting of the iso1 SURE sequence.
(§2) EMSAs were carried out essentially as described by Sun et al. (1999). The competitor probes were prepared by annealing different non-labeled oligonucleotides in 14 mM Tris-HCl (pH 8.0), 7 mM MgCl₂.
In general terms: Mobility shift assays separate free from complexed probe on a gel.

For data set [2], the target named is T1, SUSIBA2 (WRKY transcription factor; …). Description: EMSA; strong binding.
Source text: as §1, §2

The target is the same in data set [3]. Description: EMSA; two complexes, attributed to 70 and 68 kDa forms.

T1 sequence (Q6VWJ6 whole entry, the tested form may be a part, one chain of several): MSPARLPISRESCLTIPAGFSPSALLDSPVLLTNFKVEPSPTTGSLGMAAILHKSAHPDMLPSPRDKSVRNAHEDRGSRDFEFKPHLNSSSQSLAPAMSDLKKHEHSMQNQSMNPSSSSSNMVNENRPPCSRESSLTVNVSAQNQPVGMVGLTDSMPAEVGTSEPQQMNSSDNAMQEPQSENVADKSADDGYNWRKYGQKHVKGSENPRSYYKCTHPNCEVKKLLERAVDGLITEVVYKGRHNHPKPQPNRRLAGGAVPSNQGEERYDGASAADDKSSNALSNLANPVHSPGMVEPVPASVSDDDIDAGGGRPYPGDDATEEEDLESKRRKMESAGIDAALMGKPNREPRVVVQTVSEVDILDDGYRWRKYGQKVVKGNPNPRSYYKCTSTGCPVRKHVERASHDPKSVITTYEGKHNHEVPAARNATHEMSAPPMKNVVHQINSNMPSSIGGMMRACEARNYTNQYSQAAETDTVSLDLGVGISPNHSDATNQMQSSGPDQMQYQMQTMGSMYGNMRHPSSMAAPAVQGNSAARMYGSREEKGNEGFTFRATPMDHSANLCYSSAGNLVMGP

B1: iso1 SP8a oligonucleotide (dsDNA)
DNA 1: CCCTCGTGGAAGCAAAACTGTGTTTCTCGC
DNA 2: GCGAGAAACACAGTTTTGCTTCCACGAGGG
As to B1, the binding result in data set [1] was “no binding”.

B2: iso1 SURE (SURE-b) oligonucleotide (dsDNA)
DNA 1: GGAAAACCGAAATACCAAAAAATAATAATAAAATAATAAT
DNA 2: ATTATTATTTTATTATTATTTTTTGGTATTTCGGTTTTCC
For the molecule B2, in data set [2], the binding result is recorded as “binds”.

B3: iso1 W box oligonucleotide (dsDNA)
DNA 1: TCGCTAACCAGTGACTTCCACGTTTCATCATTTATT
DNA 2: AATAAATGATGAAACGTGGAAGTCACTGGTTAGCGA
Turning to B3, in data set [3], the binding result is “binds”.
